B1: TPR t1 (parent)
chain: GACCAAUCUGCCCUCAGAGCUCGAGAACAUCUUCGGAUGCAGAGGAGGCAGGCUUCGGUGGCGCGAUAGCGCCAACGUCCUCAACCUCCAAUGCAUCCCACCACAUGAUGAUGCCUGAAGAGCCUUGGUUUUUUG

Variants of: B1
Assay: polymerase ribozyme fitness, log enrichment relative to wild type (log ratio); higher = more active; in vitro selection for triplet polymerase activity
How it was run: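 PCR was used to build mutant libraries for each subunit of a heterodimeric triplet polymerase ribozyme, which were then transcribed. A single in vitro selection round, in triplicate, used a frozen incubation at −7 °C and recovered extended constructs by gel excision, streptavidin beads and RT-PCR. Fitness is the logarithm of genotype enrichment relative to wild-type enrichment, averaged over replicates with inverse-variance weights. The logarithm is base 2, and after Illumina sequencing only genotypes with ≥10 input reads and ≥1 read per output were kept.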

Row | Variant | polymerase ribozyme fitness (log ratio)
1 | C22G C114U | -3.43
2 | C22G C114A | -3.01
3 | C22G A29U G120U U133A | -5.17
4 | C22G A29C C89A G120C | -6.79
5 | U21C A29U C62U A84C U112A A119G G120C | -1.53
6 | C22A G39U | -5.33
7 | C22U C53U | -4.37
8 | C22A C123A U125G | -4.58
9 | U21C G63C | -0.656
10 | C22G C49A G127A U129G | -4.21
11 | U21C G60C | -0.312
12 | U21G C40G | -0.951
13 | C22G G42U G44U C89U | -4.83
14 | C22G A90C U92C G120C | -3.7
15 | C22G A37U A41C C53U | -3.91
16 | C22U G52A C88U | -5.75
17 | U21C C22G G63A G77U C94A G110C U112C | -7.86
18 | U21C U78A A91U | -1.45
19 | C22A A27G G60C A83G | -6.08
20 | C22G C53U | -4.09
21 | C22U G69U C82U C124G U126A | -0.7

Row | Variant | polymerase ribozyme fitness (log ratio)
22 | U21C G63C G120A | -0.168
23 | C22U A26G A119G G122A C123A | -2.69
24 | C22A G25C G45C G48U U59A C115U | -6.59
25 | C22G G57A C124U | -2.07
26 | C22U G57U | -4.03
27 | C22U A100C | -4.93
28 | U21C U112G | -0.886
29 | C22G C56A C79A | -4.99
30 | C22G G23A C97U G120C | -3
31 | C22A C64U C114G G135U | -5.66
32 | C22U C82A A84C G93C U112C | -4.92
33 | C22A G61U C115U G128C U131A U134C | -5.61
34 | C22G U67A G93C A103G G110U | -5.12
35 | C22G A83U C89G A121G | -3.33
36 | U21G A37G G61A G135U | -2.33
37 | C22G A95G C104U | -2.37
38 | C22G A46G G60A G120A | -4.49
39 | C22A A111C | -4.49
40 | U21C C72G A90C | -1.98
41 | C22U A26U U54G A118U | -4.35
42 | C22G C49G A84U C86U | -4.89

Row | Variant | polymerase ribozyme fitness (log ratio)
43 | C22U A43U C86U | -5.15
44 | C22A C70G A111C G113C | -6.22
45 | U21C C72G C85A U116C | -3.42
46 | C22U G71A | -3.86
47 | C22U C40G G63A A74U A75U | -5.63
48 | C22G C53U C70A G120A G128U | -4.71
49 | C22U C31G A50U C72G C82A A95G G107C | -5.28
50 | U21G G93A C114G | -4.94
51 | U21C G71U | -0.75
52 | U21C G120U | -0.0201
53 | C22G C56A C64U C80G C101G U130A | -5.63
54 | U21G G71U | -2.37
55 | C22G C34G C70A C123A | -6.39
56 | U21G G120U C123A | -1.07
57 | C22U A37U C56U | -5.01
58 | C22U A37G G61U U112C U126G G128A | -4.46
59 | U21G C72A A121U | 0.876
60 | U21G C56A C70U C89A G113U | -3.69
61 | U21C G71A G93A | -1.91
62 | U21C G45C C56U U109A A111U C124G | -4.35
63 | C22A C56A | -3.44

Row | Variant | polymerase ribozyme fitness (log ratio)
64 | U21C G57U | -0.235
65 | C22G G48C C72U C124U | -2.66
66 | C22U A26U A27U A41C G71C C82G A111C A118U G127C | -6.27
67 | C22G G52U C73U A95C | -5.41
68 | C22G A37U C88U | -4.47
69 | C22U A41U C53U C56U G61U G110U A121C | -7.42
70 | C22U A121C | -3
71 | C22G G113C | -5.28
72 | C22U G44C C56U | -4.25
73 | U21G G45U C101A | -3.2
74 | C22G A75U C101U C123A G128C | -6.24
75 | U21C A95G | -0.566
76 | C22A C49G G69U C85U | -2.28
77 | U21C U38G C49A G120U U130G U131G | -4.41
78 | C22A G44C U112A | -3.24
79 | C22G G93A | -3.42
80 | C22G G42U A84U C115A C124G | -3.07
81 | C22G G60C A95C A121U | -2.32
82 | C22U A75G | -3.55
83 | C22U G60A C123A | -4.89
